Assay results taken from article PMC11143242 (Nature Communications, 2024).

Legend:
Conditions in all cases: both partners purified
[1] = biological target: CPXV CPXV199 (Cowpox virus, Brighton Red, UniProt Q8QMP6); test: SPR
[2] = biological target: VARV B7 (Variola virus, India-1967, UniProt Q76QZ2); test: SPR
[3] = biological target: MPXV B6 protein (Monkeypox virus, clade II …); test: SPR; antibodies (0.5 ug/mL) […]; BIAcore 8K, 25 °C, […]; 1:1 Langmuir model
[4] = biological target: MPXV B6 (T20-H279) (Monkeypox virus, clade II …); test: ELISA
[5] = biological target: MPXV B6 SCR1-2-3-4 (T20-N241) (Monkeypox virus, clade II …); test: ELISA
[6] = biological target: MPXV B6 SCR1-2-3 (T20-K185) (Monkeypox virus, clade II …); test: ELISA
[7] = biological target: MPXV B6 SCR1-2 (T20-E129) (Monkeypox virus, clade II …); test: ELISA

B1: hMB621 (antibody, V domains shown)
VH: QVQLVQSGGGVVQPGRSLRLSCVASGFSISTYPLHWVRQAPGKGLEWVAVISHDGRNKYYADSVKGRFSISRDNSKNTVYLQMNSLRVEDTAVYYCARAYPYAFDVWGQGTLVTVSS
VL: EIVLTQSPATLSVSPGETATLSCRASQSVRNDLAWYQQKPGQAPRLLIYGASTRASGIPARFSGSGSGTEFTLTISSLQSEDFAIYYCQQYKDWPPWTFGQGTKVEIK
binding result [1]: binds | binding result [2]: binds | Kd [3]: 1.9 nM | binding result [4]: binds | binding result [5]: binds | binding result [6]: binds

B2: hMB668 (antibody, V domains shown)
VH: QVQLVQSGAEVKKPGSSVKVSCKSSGGTFSDYAINWVRQAPGQGLEWMGRILPIVGVPNYAQKFQGRVTITADKSSSTAYKEVSGLRSEDTAVYYCARRSGINGHGLDVWGQGTTVIVSS
VL: DIVMTQSPLSLPVTPGEPASISCRSSQSLLNTNGYNYLEWYLHKPGQSPQLLIYLGSHRASGVPDRFSGSGSGTDFTLKISRAEPEDVGVYYCMQTLQTQGYTFGQGTKLEIK
notes: also called MAb hMB668; source: Expi293F, transient transfection, purified (Protein A, gel filtration)
binding result [1]: binds | binding result [2]: binds | Kd [3]: 6.2 nM | binding result [4]: binds | binding result [5]: binds | binding result [7]: binds | binding result [6]: binds
